The target of the assay is CaV1.2 C-terminal domain, residues 1520-1669 (two channel EF-hand motifs, pre-IQ and IQ-motif) (rabbit) (UniProt P15381). As to the kind of experiment: SEC. On the technique in general: SEC sorts molecules by how far they enter the pores of the column.
Sequence of UniProt P15381 (P15381 1520-1669): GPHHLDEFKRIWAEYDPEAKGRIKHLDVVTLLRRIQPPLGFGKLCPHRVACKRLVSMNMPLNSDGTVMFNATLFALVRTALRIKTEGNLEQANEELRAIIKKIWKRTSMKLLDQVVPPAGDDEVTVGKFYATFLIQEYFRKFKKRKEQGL

As to “Calmodulin (from UniProt P0DP23 1-149) (natural protein)”, the stoichiometry N (CaM per CT(1520-1669) (4:4)) came out at 1.

(Values after article PMC9719739.)
